Assay results as given in patent publication US20150335719A1, “Intravitreal Injection of a Chimeric Phage Endolysin Ply187; Protection from Staphylococcus aureus Endophthalmitis” (priority 2014, published 2015).

Columns and labels:
[1] = tested on: S. aureus R 3000 (HA-MRSA); assay: MIC against S. aureus strains (Table 1); type: cell-based, Staphylococcus aureus; details: mean of three experiments ± SEM
Procedure: For in vivo studies, an antibiotic sensitive S. aureus (SA) strain RN6390 was used to induce endophthalmitis; whereas, the in vitro studies were performed using antibiotic-resistant strains (Table 1), including USA300, a community-associated methicillin resistant S. aureus (CA-MRSA), and three clinical isolates R2932 (CA-MRSA), R2952 and R3000 (both being hospital-associated MRSA, […]), […]) kindly provided by Dr. Michael J. Rybak (Department of Pharmaceutical Sciences, Wayne State University, Detroit, Mich.). All bacteria were routinely cultured in TSB broth (Tryptic Soy broth, Sigma, St Louis, Mo.) or on TSB agar plates.
To verify and quantify the lytic activity against live S. aureus, we have tested Ply187AN-KSH3b in the Turbidity Reduction Assay. The turbidity assay measures the drop in optical density (OD) resulting from lysis of the target bacteria with the phage endolysin-derived protein. Turbidity reduction assays by chimeric Ply187AN-KSH3b were performed in a 96 well plate as described previously by Becker et al. (2009a, 2009b, supra). Briefly, S. aureus strains/isolates RN6390, USA 300, and clinical isolates R2932, R2952 and R3000 were grown to logarithmic phase (OD600 0.4-0.6) at 37° C. in tryptic Soy broth (TSB). The culture was harvested by centrifugation and the pellet was resuspended in assay buffer (400 mM NaCl, 20 mM Tris HCl, 1% glycerol, pH 7.5). Bacterial cultures (100 μl/well) were mixed with 100 μl of (as per MIC) of chimeric Ply187AN-KSH3b protein diluted in the same assay buffer. The reduction in the turbidity was measured after every 5 min up to 1 h using a micro plate reader. EB diluted in the same assay buffer (without chimeric Ply187AN-KSH3b protein) was used as a control (EB C). Resistance development against chimeric Ply187AN-KSH3b was tested using repeated exposure in an MIC assay as described by Rodriguez-Rubio and co-workers (Rodriguez-Rubio et al., PLoS One 8:e64671.). In brief, bacterial cultures (10^5 CFU/well) were exposed overnight to a 2-fold serial dilution of chimeric Ply187AN-KSH3b, lysostaphin, and gentamicin, where the latter serve as controls. In every round, 100 μl culture from the wells with growth (½ MIC value) were inoculated into fresh TSB and grown up to logarithmic phase. These cultures were used for the next round of MIC exposure. Bacteria surviving after 10 rounds were grown for an additional 5 rounds in TSB without any selection pressure to allow phenotype-reversion, then MIC were performed to measure the sensitivity to the chimeric Ply187AN-KSH3b after non-selective growth.

[2] = tested on: S. aureus strains/isolates RN6390, USA 300, R2932, R2952 and R3000; assay: Turbidity reduction assay; type: cell-based, Staphylococcus aureus; details: at MIC, measured every 5 min up to 1 h
Procedure: Error bars represent SEM for three independent experiments performed in triplicates. […] Cells surviving at half (½) of the MIC value were used as an inoculum for each subsequent round of exposure. The change in susceptibility is recorded and presented as fold change resistance from day 1 to 10 of exposure and also after 5 days of growth (without any selection pressure) following the 10th day (represented as 10+5). The data represent means±SEM of two independent experiments performed in triplicate.
To verify and quantify the lytic activity against live S. aureus, we have tested Ply187AN-KSH3b in the Turbidity Reduction Assay. The turbidity assay measures the drop in optical density (OD) resulting from lysis of the target bacteria with the phage endolysin-derived protein. Turbidity reduction assays by chimeric Ply187AN-KSH3b were performed in a 96 well plate as described previously by Becker et al. (2009a, 2009b, supra). Briefly, S. aureus strains/isolates RN6390, USA 300, and clinical isolates R2932, R2952 and R3000 were grown to logarithmic phase (OD600 0.4-0.6) at 37° C. in tryptic Soy broth (TSB). The culture was harvested by centrifugation and the pellet was resuspended in assay buffer (400 mM NaCl, 20 mM Tris HCl, 1% glycerol, pH 7.5). […] The reduction in the turbidity was measured after every 5 min up to 1 h using a micro plate reader. […]

[3] = tested on: S. aureus (strain RN6390, USA 300, R 2932, R 2952, R 3000) biofilms; assay: Biofilm disruption (Live/Dead BacLight staining and CFU count); type: cell-based, Staphylococcus aureus; details: 24 h biofilms treated for 30 min
Procedure: FIGS. 2A-2E depicts the biofilm disruption activity of chimeric Ply187AN-KSH3b. In FIG. 2A-2E, either chimeric Ply187AN-KSH3b or EB (EB C) or Gentamicin (for MDR/MRSA strains/isolates) was applied to cover slips containing S. aureus RN6390 (FIG. 2A), USA 300 (FIG. 2B), R 2932 (FIG. 2C), R 2952 (FIG. 2D) and R3000 (FIG. 2E) biofilms for 30 min. Bacterial killing was assessed via Live/Dead™ staining and subsequent fluorescence microscopy. FIG. 2F depicts the viability of biofilm associated bacteria enumerated by CFU count. Error bars represent the mean±SEM of two independent experiments performed in triplicate.
Biofilm disruption by the chimeric Ply187AN-KSH3b was observed using Live/Dead BacLight™ staining which takes advantage of SYTO™ 9, a green-fluorescent nucleic acid stain and propidium iodide that fluoresces red. SYTO™ 9 labels a bacterial population with an intact membrane and fluoresces green. In contrast, propidium iodide penetrates bacteria with damaged membranes and fluoresces red. Briefly, static biofilms of S. aureus (strain RN6390, USA 300, R 2932, R 2952, R 3000) were grown on glass cover slips in 6 well tissue culture plates in fresh TSB media seeded with S. aureus. After incubation at 37° C. for 24 h, the biofilms were treated for an additional 30 min with chimeric Ply187AN-KSH3b (as per MIC) diluted in EB or with EB/gentamicin alone. The biofilms were then stained with the Live/Dead BacLight™ bacterial viability kit (Invitrogen, Carlsbad, Calif.), per manufacturer's instruction. The cover slips were washed three times with PBS to remove excess stain and cell debris, mounted with mounting oil on a glass slide, and examined with an Eclipse 90i fluorescence microscope (Nikon, Melville, N.Y.).

S. aureus RN6390 = assay: Mouse S. aureus endophthalmitis: bacterial burden in eyes (plate count); type: in vivo, C57BL/6 mice; details: 24 h after treatment
Excerpt: FIGS. 4 A, B and C depict the effect of chimeric Ply187AN-KSH3b on bacterial growth in vivo and in the vitreous humor (VH) in vitro and with increasing inoculums in vitro respectively. […] Twenty-four hours after the treatment, the eyes were enucleated, homogenized and the bacterial burden was estimated via serial dilution plating. FIG. 4B depicts a test showing the effect of the vitreous humor on Ply187AN-KSH3b antimicrobial activity where Ply187AN-KSH3b was mixed with calf vitreous humor and inoculated with 10^5 CFU of S. aureus. The survival of the bacteria was enumerated by CFU count at 2, 4 and 6 h of incubation. Statistical analysis was performed using unpaired student's t test (*, p<0.05; **, p<0.005; ***, p<0.0005). […] An increasing number of dilutions (1:10,000 to 1:10) of logarithmic phase of S. aureus (RN6390 strain) were treated with Ply187AN-KSH3b for 1 h followed by CFU enumeration on TSA plates. Statistical analysis was performed using unpaired student's t test (*, p<0.05; **, p<0.005; ***, p<0.0005).
The bacterial burden in both chimeric Ply187AN-KSH3b- and vehicle-treated eyes was estimated using a bacterial plate count method. At the desired time point, the eyes were enucleated and homogenized in sterile PBS by stainless steel beads using Tissue lyser (Qiagen, Valencia, Calif.). […] The results were expressed as the mean number of CFU/eye ±SEM.

B1: Ply187AN-KSH3b: staphylococcal peptidoglycan hydrolase fusion protein: endopeptidase domain of prophage endolysin Ply187 plus SH3b cell wall-binding domain of phage K endolysin LysK (SEQ ID NO:1) (protein)
chain: MALPKTGKPTAKQVVDWAINLIGSGVDVDGYYGRQCWDLPNYIFNRYWNFKTPGNARDMAWYRYPEGFKVFRNTSDFVPKPGDIAVWTGGNYNWNTWGHTGIVVGPSTKSYFYSVDQNWNNSNSYVGSPAAKIKHSYFGVTHFVRPAYKAEPKPTPPLESTPATRPVTGSWKKNQYGTWYKPENATFVNGNQPIVTRIGSPFLNAPVGGNLPAGATIVYDEVCIQAGHIWIGYNAYNGNRVYCPVRTCQGVPPNQIPGVAWGVFKVEHHHHHH
modifications: Chemically Synthesized Fusion Protein
MIC [1]: 4.16 ± 1.04 µg/mL | reduction in the turbidity of suspension culture [2]: time-dependent reduction in the turbidity | biofilm disruption by Live/Dead staining [3]: successfully disrupted biofilms | CFU counts of biofilm associated bacteria ([3]; all strains tested): almost zero | bacterial burden recovered (S. aureus RN6390; treatment 6 h post infection): 3.6×10^3 CFU/eye | bacterial burden recovered (S. aureus RN6390; treatment 12 h post infection): 2.9×10^4 CFU/eye
